Literature values as cited in publication PMC8859281.
pKi: −log10 of the molar value.

What was measured:
[1] = target: prokineticin receptor 1 (Homo sapiens) (UniProt Q8TCW9)
[2] = target: prokineticin receptor 2 (Homo sapiens) (UniProt Q8NFJ6)
κ-opioid receptor = κ-opioid receptor (UniProt P41145)
Chain of κ-opioid receptor (P41145 whole entry): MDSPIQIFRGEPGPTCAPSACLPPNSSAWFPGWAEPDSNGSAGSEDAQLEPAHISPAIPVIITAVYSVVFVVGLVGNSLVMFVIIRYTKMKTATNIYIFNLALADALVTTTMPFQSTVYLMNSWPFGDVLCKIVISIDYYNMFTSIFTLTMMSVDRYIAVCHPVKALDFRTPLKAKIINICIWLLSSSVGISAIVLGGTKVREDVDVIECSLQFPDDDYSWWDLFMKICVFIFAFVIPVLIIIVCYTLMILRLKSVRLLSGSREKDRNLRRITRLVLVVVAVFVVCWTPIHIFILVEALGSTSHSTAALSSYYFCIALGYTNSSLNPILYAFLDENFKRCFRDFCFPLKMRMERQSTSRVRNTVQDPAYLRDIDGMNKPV

Chain of MIT1 (P25687 whole entry): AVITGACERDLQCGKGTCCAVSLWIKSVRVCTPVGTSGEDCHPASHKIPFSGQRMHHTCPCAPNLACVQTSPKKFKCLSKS
Chain of prokineticin receptor 1 (Homo sapiens) (Q8TCW9 whole entry): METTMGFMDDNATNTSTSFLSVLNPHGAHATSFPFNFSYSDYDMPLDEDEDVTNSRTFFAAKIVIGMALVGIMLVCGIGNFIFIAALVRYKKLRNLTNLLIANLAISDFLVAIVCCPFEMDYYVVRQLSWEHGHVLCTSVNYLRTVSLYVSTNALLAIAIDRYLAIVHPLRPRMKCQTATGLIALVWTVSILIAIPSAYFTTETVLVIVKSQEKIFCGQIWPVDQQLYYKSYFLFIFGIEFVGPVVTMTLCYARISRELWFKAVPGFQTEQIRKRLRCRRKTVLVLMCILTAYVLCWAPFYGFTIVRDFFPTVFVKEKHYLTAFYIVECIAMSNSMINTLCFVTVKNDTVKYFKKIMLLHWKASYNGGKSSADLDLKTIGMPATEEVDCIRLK
Chain of prokineticin receptor 2 (Homo sapiens) (Q8NFJ6 whole entry): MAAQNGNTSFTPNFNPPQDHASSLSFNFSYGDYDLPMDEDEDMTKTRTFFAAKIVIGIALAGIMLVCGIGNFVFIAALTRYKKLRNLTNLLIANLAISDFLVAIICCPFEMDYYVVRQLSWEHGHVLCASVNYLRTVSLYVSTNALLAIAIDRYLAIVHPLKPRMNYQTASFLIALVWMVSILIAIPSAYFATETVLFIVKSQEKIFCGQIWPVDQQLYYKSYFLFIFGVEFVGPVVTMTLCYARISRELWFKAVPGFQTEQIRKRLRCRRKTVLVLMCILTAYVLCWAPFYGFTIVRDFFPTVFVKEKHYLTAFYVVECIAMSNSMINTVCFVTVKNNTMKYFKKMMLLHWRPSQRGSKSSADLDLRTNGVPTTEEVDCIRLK

| Substance | pKi [1] | pKi [2] | pKi (κ-opioid receptor) |
| --- | --- | --- | --- |
| MIT1 (from UniProt P25687) | 8.39 | 9.17 | – |
| dynorphin A 1-17 (from UniProt P01213) | – | – | 9.55 |
